Results published in US7387779B2, “Anti-angiogenic proteins and fragments and methods of use thereof” (Beth Israel Deaconess Medical Center, priority 1998, dated 2008).

How the values were obtained:
[1] = system: MLEC β3−/−; assay: Protein synthesis and cap-dependent translation in β3-integrin deficient endothelial cells; type: cell-based, mouse; settings: 4.5 μM; rapamycin 100 ng/ml
Source text: Therefore, to evaluate the effect of tumstatin peptides on cap-dependent and independent translation, endothelial cells were isolated from lungs of 12-week-old mice that were deficient in the expression of αvβ3 integrin (i.e., 3 integrin-deficient mice), and also their wild-type counterparts (Hodivala-Dilke, K. M. et al., 1999, J. Clin. Invest. 103:229-38). Briefly, ICAM-2 expressing MLEC were enriched using rat anti-mouse ICAM-2 (# 01800D, PharMingen, San Diego, Calif., USA) conjugated to magnetic beads (Dynabeads M-450, Dynal, Oslo, Norway). MLEC were maintained in 40% Ham's F-12,40% DME-Low Glucose, 20% FBS supplemented with heparin, endothelial mitogen (Biomedical Technologies, Inc., Cambridge, Mass., USA), glutamine and penicillin/streptomycin. Wild-type and β3-integrin-deficient mouse embryonic fibroblasts were prepared (Hodivala-Dilke, K. M. et al., 1999, J. Clin. Invest. 103:229-38). MEFs were maintained in DMEM containing 10% FBS. MLEC were characterized for homogeneity by morphological observations and by immunofluorescence staining for endothelial-specific markers. Cells between passage 3 and 6 were used for the experiments.

[2] = system: mouse aortic endothelial cells (MAE); assay: Endothelial tube formation on Matrigel; type: cell-based; settings: for ED50: endothelial tube assay (FIGS. 30 and 31)
Procedure: To measure inhibition of endothelial tube formation, 320 μl of Matrigel (Collaborative Biomedical Products, Bedford, Mass., USA) was added to each well of a 24-well plate and allowed to polymerize (Grant, D. S. et al., 1994, Pathol. Res. Pract. 190:854-63). A suspension of 25,000 mouse aortic endothelial cells (MAE) in EGM-2 medium (Clonetics Corp., San Diego, Calif., USA) without antibiotic was passed into each well coated with Matrigel. The cells were treated with increasing concentrations of either Arresten, BSA, sterile PBS or the 7S domain. All assays were performed in triplicate. Cells were incubated for 24-48 hours at 37° C. and viewed using a CK2 Olympus microscope (3.3 ocular, 10× objective). The cells were then photographed using 400 DK coated TMAX film (Kodak). Cells were stained with diff-quik fixative (Sigma Chemical Company, St. Louis, Mo., USA) and photographed again. Ten fields were viewed, and the tubes counted and averaged.
Matrigel (Collaborative Biomedical Products, Bedford, Mass., USA) was added ([…]) to each well of a 24 well plate and allowed to polymerize (Grant, D. S. et al., supra). A suspension of 25,000 mouse aortic endothelial cells (MAE) in EGM-2 (Clonetics Corporation, San Diego, Calif., USA) medium without antibiotic was passed into each well coated with Matrigel. The cells were treated with either Canstatin, BSA, sterile PBS or α5-NC1 domain in increasing concentrations. All assays were performed in triplicate. Cells were incubated for 24-48 hours at 37° C. and viewed using a CK2 Olympus microscope (3.3 ocular, 10× objective). The cells were then photographed using 400 DK coated TMAX film (Kodak). Cells were stained with diff-quik fixative (Sigma Chemical Co., St. Louis, Mo., USA) and photographed again (Grant, D. S. et al., 1994, Pathol. Res. Pract. 190:854-63). Ten fields were viewed, tubes counted and averaged.
Matrigel (Collaborative Biomedical Prods., Bedford, Mass., USA) was added ([…]) to each well of a 24-well plate and allowed to polymerize (Grant, D. S. et al., 1994, Pathol. Res. Pract. 190:854-63). A suspension of 25,000 MAE cells in EGM-2 medium (Clonetics Corporation, San Diego, Calif., USA) without antibiotic was passed into each well coated with Matrigel (Grant, D. S. et al., 1994, Pathol. Res. Pract. 190:854-63). The cells were treated with either Tumstatin, BSA or 7S domain in increasing concentrations. Control cells were incubated with sterile PBS. All assays were performed in triplicate. Cells were incubated for 24-48 hours at 37° C. and viewed using a CK2 Olympus microscope (magnification of 3.3× ocular, 10× objective). The cells were then photographed using 400 DK coated TMAX film (Kodak). Cells were stained with diff-quik fixative (Sigma Chemical Co.) and photographed again (Grant, D. S. et al., 1994, Pathol. Res. Pract. 190:854-63). Ten fields were viewed, and the number of tubes were counted by two investigators unaware of the experimental protocols, and averaged.
Fragments and mutants of Arresten and Canstatin were also made according to the Pseudomonas elastase digestions of Mariyama et al. (1992, J. Biol. Chem. 267:1253-58). The digest was resolved by gel filtration HPLC and the resultant fragments were analyzed by SDS-PAGE and evaluated in the endothelial tube assay described above. These fragments included a 12 kDa fragment of Arresten, an 8 kDa fragment of Arresten, and a 10 kDa fragment of Canstatin. In addition, two fragments of Tumstatin (‘333’ and ‘334’) were generated by PCR cloning.

| Molecule | cap-dependent protein synthesis in αvβ3 integrin deficient (β3−/−) endothelial cells [1] | concentration of maximum inhibition [2] [ng/mL] | Percentage of tube formation after treatment ([2]; 1 mg/ml of protein, produced in 293 cells) | ED50 [2] [ng/mL] | inhibition of tube formation ([2]; 1 mg of Canstatin protein produced in 293 cells) |
| --- | --- | --- | --- | --- | --- |
| endostatin: tumor associated angiogenesis inhibitor used as comparator (protein, UniProt P39060 1572-1754, looked up, Endostatin) Endostatin: HSHRDFQPVLHLVALNSPLSGGMRGIRGADFQCFQQARAVGLAGTFRAFLSSRLQDLYSIVRRADRAAVPIVNLKDELLFPSWEALFSGSEGPLKPGARIFSFDGKDVLRHPTWPQKSVWHGSDPNGRRLTESYCETWRTEAPSATGQASSLLGGRLLGQSAASCHHAYIVLCIENSFMTASK | did not exhibit this property |  |  |  |  |
| Tumstatin: NC1 domain of the α3 chain of type IV collagen, residues 1-244 (SEQ ID NO:10) (protein, listed as Homo sapiens) GLKGKRGDSGSPATWTTRGFVFTRHSQTTAIPSCPEGTVPLYSGFSFLFVQGNQRAHGQDLGTLGSCLQRFTTMPFLFCNVNDVCNFASRNDYSYWLSTPALMPMNMAPITGRALEPYISRCTVCEGPAIAIAVHSQTTDIPPCPHGWISLWKGFSFIMFTSAGSEGTGQALASPGSCLEEFRASPFLECHGRGTCNYYSNSYSFWLASLNPERMFRKPIPSTVKAGELEKIISRCQVCMKKRH | did not have any effect | 800 to 1000 | 14.0±4.0 | 550 |  |
| Canstatin: NC1 domain of the α2 chain of Type IV collagen (SEQ ID NO:6) (protein, listed as Homo sapiens) VSIGYLLVKHSQTDQEPMCPVGMNKLWSGYSLLYFEGQEKAHNQDLGLAGSCLARFSTMPFLYCNPGDVCYYASRNDKSYWLSTTAPLPMMPVAEDEIKPYISRCSVCEAPAIAIAVHSQDVSIPHCPAGWRSLWIGYSFLMHTAAGDEGGGQSLVSPGSCLEDFRATPFIECNGGRGTCHYYANKYSFWLTTIPEQSFQGSPSADTLKAGLIRTHISRCQVCMKNL |  |  |  | 400 | near complete inhibition |
